Data published in patent US5677280A, “Peptides and compounds that bind to the IL-5 receptor” (Glaxo Group Limited, priority 1995, dated 1997).

B1: peptide … (SEQ ID NO:7) (peptide)
peptide: DGYVCVEWARCPTCK
B2: peptide … (SEQ ID NO:8) (peptide)
peptide: DGYVCVEWARCPMCT
B3: peptide … (SEQ ID NO:9) (peptide)
peptide: DGFVCVEWARCPNCR

Assays:
human IL-5 receptor = biological target: T1, human IL-5 receptor (Homo sapiens, UniProt Q01344); settings: HL60 subclone, eosinophilic differentiation initiated with sodium butyrate; read-out: Kd of IL-5 binding sites; cited from earlier work
T1 construct: host or cells: subclone of HL60 induced towards eosinophil differentiation with sodium butyrate (endogenous receptor)
T1 sequence (Q01344 21-420): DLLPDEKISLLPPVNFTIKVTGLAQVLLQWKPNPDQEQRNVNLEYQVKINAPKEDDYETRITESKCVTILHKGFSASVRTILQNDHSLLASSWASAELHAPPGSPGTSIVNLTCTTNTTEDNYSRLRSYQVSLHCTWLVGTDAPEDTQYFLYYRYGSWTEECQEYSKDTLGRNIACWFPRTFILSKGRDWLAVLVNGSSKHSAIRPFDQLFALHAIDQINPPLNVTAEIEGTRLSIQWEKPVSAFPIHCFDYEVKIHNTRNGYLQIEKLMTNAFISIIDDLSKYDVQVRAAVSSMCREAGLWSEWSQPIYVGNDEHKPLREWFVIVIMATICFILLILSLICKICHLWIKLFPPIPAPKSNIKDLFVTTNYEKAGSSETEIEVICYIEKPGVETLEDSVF
T1 sequence (P32927 17-897 partner): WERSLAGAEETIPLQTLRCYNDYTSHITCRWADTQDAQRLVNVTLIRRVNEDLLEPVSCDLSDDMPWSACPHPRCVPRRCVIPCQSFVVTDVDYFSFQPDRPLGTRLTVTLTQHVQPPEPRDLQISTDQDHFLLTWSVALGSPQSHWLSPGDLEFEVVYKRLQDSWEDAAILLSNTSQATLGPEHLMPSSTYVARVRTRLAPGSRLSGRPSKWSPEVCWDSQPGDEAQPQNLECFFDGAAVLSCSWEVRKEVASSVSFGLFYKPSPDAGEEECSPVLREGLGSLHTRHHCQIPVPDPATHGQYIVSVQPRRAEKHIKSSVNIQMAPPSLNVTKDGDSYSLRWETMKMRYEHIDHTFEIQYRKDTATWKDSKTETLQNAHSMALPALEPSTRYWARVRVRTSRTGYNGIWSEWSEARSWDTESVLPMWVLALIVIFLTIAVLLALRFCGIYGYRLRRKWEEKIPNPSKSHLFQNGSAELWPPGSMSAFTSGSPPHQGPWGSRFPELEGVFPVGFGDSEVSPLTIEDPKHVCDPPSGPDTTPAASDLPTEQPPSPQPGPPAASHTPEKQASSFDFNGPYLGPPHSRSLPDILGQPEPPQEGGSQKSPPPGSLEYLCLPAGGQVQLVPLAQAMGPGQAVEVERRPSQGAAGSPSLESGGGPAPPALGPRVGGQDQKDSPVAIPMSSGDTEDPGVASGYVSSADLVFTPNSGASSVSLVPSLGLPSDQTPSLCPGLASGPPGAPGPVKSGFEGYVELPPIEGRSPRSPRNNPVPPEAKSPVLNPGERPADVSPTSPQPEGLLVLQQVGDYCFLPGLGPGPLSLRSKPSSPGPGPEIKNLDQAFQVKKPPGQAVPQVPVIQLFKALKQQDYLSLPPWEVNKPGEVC

[1] = biological target: extracellular domain (ECD) of the IL-5 receptor α chain, soluble (human) (UniProt Q01344); assay: competition with [125I] IL-5 on immobilised soluble IL-5Rα; grade ++ = IC50 of 500 nm or less

Molecule	Kd (human IL-5 receptor) [nM]	IC50 [1] [nM]
IL-5: lymphokine secreted by T cells and mast cells having biological activities on B cells and eosinophils	0.03	
B1		< 500
B2		< 500
B3		< 500
